{"source": "patent US20100056392A1", "about": "“MICROSTRUCTURE AND MICRODOMAIN MICROARRAYS, METHODS OF MAKING SAME AND USES THEREOF” (priority 2005, published 2010)", "key": {"[1]": {"molecular_target": "T1, transcription factor GAL80 (Saccharomyces cerevisiae, UniProt P04387)", "T1 sequence (P04387 1-435)": "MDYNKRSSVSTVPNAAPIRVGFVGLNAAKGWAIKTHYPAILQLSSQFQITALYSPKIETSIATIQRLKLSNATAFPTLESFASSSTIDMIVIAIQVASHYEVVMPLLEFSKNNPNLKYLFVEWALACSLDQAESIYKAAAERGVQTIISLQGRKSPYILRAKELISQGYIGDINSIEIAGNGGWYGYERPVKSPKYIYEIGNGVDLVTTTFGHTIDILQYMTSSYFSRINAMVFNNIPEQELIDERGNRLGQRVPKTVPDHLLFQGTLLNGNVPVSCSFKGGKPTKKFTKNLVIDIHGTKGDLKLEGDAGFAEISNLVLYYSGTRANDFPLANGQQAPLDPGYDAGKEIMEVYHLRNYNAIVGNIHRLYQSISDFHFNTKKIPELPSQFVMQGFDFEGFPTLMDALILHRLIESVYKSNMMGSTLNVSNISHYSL", "conditions": "template peptide of the array; cited from earlier work"}, "[2]": {"molecular_target": "T2, transcription factor AP-1 (c-JUN) (Homo sapiens, UniProt P05412)", "T2 construct": "purchased Promega Corp (Madison, Wis.)", "T2 sequence (P05412 whole entry)": "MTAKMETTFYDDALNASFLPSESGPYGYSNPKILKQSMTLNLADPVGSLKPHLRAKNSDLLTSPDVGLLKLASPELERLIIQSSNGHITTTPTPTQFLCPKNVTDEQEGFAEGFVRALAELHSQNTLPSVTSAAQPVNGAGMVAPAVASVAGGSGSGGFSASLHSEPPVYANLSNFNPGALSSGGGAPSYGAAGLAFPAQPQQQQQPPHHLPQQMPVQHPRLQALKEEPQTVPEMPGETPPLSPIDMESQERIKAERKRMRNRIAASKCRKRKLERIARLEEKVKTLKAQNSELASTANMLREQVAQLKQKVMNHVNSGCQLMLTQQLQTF", "assay": "rhAP1 binding to DNA grafted polymer microstructures, in situ trypsin digest and MALDI-MS peptide mass fingerprinting", "conditions": "rhAP1 0.3 ug/ml 1:1 with buffer Z, 0.5 hrs at RT and 2 hrs at 4 C; identified by MALDI-MS, not in control", "experimental": "This array was then washed with sterile water and a 1:1 mixture of rhAP1 protein 0.3 μg/ml and buffer Z (25 mM HEPES K+ pH 7.8, 12.5 mM MgCl2, 1 μM DTT, 20% glycerol, 0.1 Nonidet p40) and 2 μL was spotted onto all 5 microstructures. This was allowed to bind for 0.5 hrs at RT and 2 hrs at 4 C and then rinsed with sterile water at 4° C. The fluorescence was rechecked and the treatment spots were still fluorescent. 2 μL of a 1:100 dilution of 10 μg/mL trypsin in 25 mM ammonium carbonate and sterile water was spotted onto one feature and the array was left at 37° C. overnight.\nA slightly subsaturated solution of α-cyano-4-hydroxycinnamic acid solution of 1:2 acetonitrile:water with 1% TFA was spotted, 2 μL per feature on to the array and left in hybridization chamber for 45 min. This was then dried and spotted with 1 μL of a saturated solution of α-cyano-4-hydroxycinnamic acid in 1:1 acetonitile:water with 0.1% TFA. […] Ions were only detected coming from the trypsin digest array element.\nThis array was then washed with sterile water and a 1:1 mixture of rhAP1 protein 0.3 ug/ml and buffer Z (25 mM HEPES K+ pH 7.8, 12.5 mM MgCl2, 1 uM DTT, 20% glycerol, 0.1 Nonidet p40) and 2 uL was spotted onto all 5 microstructures. […] The fluorescence was rechecked and the treatment spots were still fluorescent. […]"}}, "note": "{AminoPEG9} = amino group attached through a PEG9 spacer, used for covalent surface attachment"}
{"molecule": "EGEWTEGKLSLR [template for 8,000 array variants substituted at positions 1, 3, 6]", "values": [{"measurement": "binding to transcription factor GAL80", "setting": "[1]", "result": "known to bind"}]}
{"molecule": "Consensus DNA: covalently bound DNA containing three repeats of the consensus sequence for the transcription factor AP-1 (c-JUN), hybridized to Texas Red complement (nucleic acid, DNA, 5' {AminoPEG9}, backbone not given here; further chemistry not fully specified) DNA: CGCTTGATGAGTCAGCCGGAACGCTTGATGAGTCAGCCGGAACGCTTGATGAGTCAGCCGGAAGCTTCCGGTAAATTT", "values": [{"measurement": "binding of transcription factor AP-1 to immobilized consensus DNA", "setting": "[2]", "result": "bind the transcription factor AP-1"}]}
